Test in all cases: G' assay
Assay [1] addresses T1, GST-MINT1 PDZ domain 1 (Mus musculus (Mouse)), B2RUJ5.
T1 chain: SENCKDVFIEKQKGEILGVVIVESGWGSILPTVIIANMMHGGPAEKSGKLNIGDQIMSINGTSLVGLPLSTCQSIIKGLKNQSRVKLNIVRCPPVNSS

For assay [2], the target named is T2, GST-ZO-1 PDZ domain 2 (Rattus norvegicus (Rat)), A0A0G2.
T2 chain: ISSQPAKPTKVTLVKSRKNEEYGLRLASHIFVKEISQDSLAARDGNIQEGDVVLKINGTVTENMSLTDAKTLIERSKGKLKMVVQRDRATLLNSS

Assay [3] deals with T3, GST-ZO-2 PDZ domain 2 (Homo sapiens (Human)), Q9UDY2.
T3 chain: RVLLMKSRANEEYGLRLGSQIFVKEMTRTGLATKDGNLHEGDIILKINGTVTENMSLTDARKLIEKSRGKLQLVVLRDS

Assay [4] concerns the target T4, GST-EZRIN Binding Protein 50 PDZ domain 1 (Homo sapiens (Human)), O14745.
T4 chain: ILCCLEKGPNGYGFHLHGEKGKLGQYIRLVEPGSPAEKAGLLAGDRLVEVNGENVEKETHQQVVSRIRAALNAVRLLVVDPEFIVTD

The target of assay [5] is T5, GST-KIAA0147 PDZ domain 4 (Homo sapiens (Human)), Q14160.
T5 chain: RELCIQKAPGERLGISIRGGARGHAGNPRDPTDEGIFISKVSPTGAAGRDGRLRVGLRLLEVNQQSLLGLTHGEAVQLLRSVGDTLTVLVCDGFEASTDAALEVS

For assay [6], the target named is T6, GST-NeDLG PDZ domain 3 (Mus musculus (Mouse)), P70175.
T6 chain: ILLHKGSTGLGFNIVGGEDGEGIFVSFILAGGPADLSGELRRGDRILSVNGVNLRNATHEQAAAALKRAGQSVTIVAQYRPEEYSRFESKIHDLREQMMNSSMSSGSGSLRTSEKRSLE

Assay [7] has as its target T7, GST-PTPL1 PDZ domain 4 (Homo sapiens (Human)), Q12923.
T7 chain: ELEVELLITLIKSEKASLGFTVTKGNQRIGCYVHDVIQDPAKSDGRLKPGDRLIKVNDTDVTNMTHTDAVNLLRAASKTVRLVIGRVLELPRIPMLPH

For assay [8], the target named is T8, GST-ZO-3 PDZ domain 3 (Homo sapiens (Human)), O95049.
T8 chain: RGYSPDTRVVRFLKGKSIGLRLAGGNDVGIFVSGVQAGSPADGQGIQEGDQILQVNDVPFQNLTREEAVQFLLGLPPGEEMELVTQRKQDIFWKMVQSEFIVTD

Assay [9] addresses T9, GST-novel PDZ gene PDZ domain 1 (Homo sapiens (Human)), Q9H5P4.
T9 chain: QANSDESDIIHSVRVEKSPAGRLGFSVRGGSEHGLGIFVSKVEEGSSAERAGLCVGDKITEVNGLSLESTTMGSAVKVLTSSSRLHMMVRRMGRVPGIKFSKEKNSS

The target of assay [10] is T10, GST-DLG1 PDZ domain 2 (Homo sapiens), Q12959.
T10 chain: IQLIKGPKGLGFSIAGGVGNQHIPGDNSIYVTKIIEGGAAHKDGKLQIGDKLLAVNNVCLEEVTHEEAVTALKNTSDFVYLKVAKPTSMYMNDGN

Assay [11] has as its target GST-DLG1 PDZ domains 1, 2 (Homo sapiens), Q12959.
For assay [12], the target named is T11, GST-ERBIN PDZ domain 1 (Homo sapiens (Human)), Q96RT1.
T11 chain: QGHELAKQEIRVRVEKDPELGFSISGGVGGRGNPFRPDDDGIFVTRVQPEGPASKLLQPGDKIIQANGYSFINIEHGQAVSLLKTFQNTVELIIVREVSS

Assay [13] addresses GST-KIAA0147 PDZ domain 1 (Homo sapiens (Human)), Q14160.
Assay [14] has as its target T12, GST-Shank 1 PDZ domain 1 (Homo sapiens (Human)), Q9UPX8.
T12 chain: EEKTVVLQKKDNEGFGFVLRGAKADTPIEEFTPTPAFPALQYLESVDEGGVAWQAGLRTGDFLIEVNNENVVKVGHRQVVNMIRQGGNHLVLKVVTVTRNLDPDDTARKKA

Assay [15] deals with T13, GST-Syntrophin gamma 2 PDZ domain 1 (Homo sapiens (Human)), Q9NY99.
T13 chain: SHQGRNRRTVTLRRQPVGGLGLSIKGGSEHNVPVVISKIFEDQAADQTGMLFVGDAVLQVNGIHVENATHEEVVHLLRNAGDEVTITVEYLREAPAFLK

The target of assay [16] is GST-TAX IP2 PDZ domain 1 [GST: P08515].
Assay [17] deals with GST-BAI-1 Associated Protein PDZ domain 3 (Homo sapiens (Human)), Q96QZ7.
In assay [18] the target is GST-BAI-1 Associated Protein PDZ domain 4 (Homo sapiens (Human)), Q96QZ7.
Assay [19] addresses GST-BAI-1 Associated Protein PDZ domain 5 (Homo sapiens (Human)), Q96QZ7.
In assay [20] the target is T14, GST-MUPP1 PDZ domain 10 (Homo sapiens (Human)), O75970.
T14 chain: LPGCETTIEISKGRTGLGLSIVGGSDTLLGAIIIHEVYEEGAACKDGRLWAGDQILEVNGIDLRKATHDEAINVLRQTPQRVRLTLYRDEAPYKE

Assay [21] concerns the target GST-Atrophin-1 Interacting Protein PDZ domain 1 (Rattus norvegicus (Rat)), O88382.
Assay [22] deals with GST-KIAA1634 PDZ domain 4 (Homo sapiens (Human)), Q5TCQ9.
Also: key of the grades not given here.

GST-KIAA0147 PDZ domain 1 (Homo sapiens (Human)), Q14160, sequence (Q14160 other isoform, or with tags, fused parts or gaps): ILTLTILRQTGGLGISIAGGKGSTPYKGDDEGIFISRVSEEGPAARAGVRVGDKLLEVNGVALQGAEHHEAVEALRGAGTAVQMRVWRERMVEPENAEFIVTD
GST-BAI-1 Associated Protein PDZ domain 5 (Homo sapiens (Human)), Q96QZ7, sequence (Q96QZ7 988-1099): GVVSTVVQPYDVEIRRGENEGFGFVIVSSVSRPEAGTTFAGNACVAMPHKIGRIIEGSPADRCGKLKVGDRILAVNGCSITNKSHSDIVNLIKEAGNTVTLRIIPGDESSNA
GST-KIAA1634 PDZ domain 4 (Homo sapiens (Human)), Q5TCQ9, sequence (Q5TCQ9 844-945): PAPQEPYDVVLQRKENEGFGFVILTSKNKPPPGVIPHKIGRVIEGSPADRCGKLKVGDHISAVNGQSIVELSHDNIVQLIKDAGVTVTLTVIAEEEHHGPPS
GST-BAI-1 Associated Protein PDZ domain 4 (Homo sapiens (Human)), Q96QZ7, sequence (Q96QZ7 other isoform, or with tags, fused parts or gaps): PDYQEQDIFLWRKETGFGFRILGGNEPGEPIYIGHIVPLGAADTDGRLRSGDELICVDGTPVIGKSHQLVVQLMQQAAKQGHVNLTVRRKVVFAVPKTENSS
GST-TAX IP2 PDZ domain 1 [GST: P08515], sequence (P08515 whole entry, the tested form may be a part): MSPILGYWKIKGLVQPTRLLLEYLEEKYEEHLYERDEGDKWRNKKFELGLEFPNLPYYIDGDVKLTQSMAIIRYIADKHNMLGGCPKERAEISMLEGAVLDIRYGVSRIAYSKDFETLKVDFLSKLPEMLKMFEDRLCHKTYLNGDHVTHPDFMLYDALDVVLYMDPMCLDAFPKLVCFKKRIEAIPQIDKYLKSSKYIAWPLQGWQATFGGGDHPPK
GST-Atrophin-1 Interacting Protein PDZ domain 1 (Rattus norvegicus (Rat)), O88382, sequence (O88382 408-511): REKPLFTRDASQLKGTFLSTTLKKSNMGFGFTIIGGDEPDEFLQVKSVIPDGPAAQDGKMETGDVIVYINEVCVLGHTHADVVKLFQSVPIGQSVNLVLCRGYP
GST-BAI-1 Associated Protein PDZ domain 3 (Homo sapiens (Human)), Q96QZ7, sequence (Q96QZ7 other isoform, or with tags, fused parts or gaps): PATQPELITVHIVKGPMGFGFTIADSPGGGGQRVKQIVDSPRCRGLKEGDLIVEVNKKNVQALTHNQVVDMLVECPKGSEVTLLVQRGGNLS

Turning to HDFRRAFKKILARGDRKRIV (modifications not checked) [alpha-2A Adrenergic receptor], the Classification in assay [1] is 1 A450 class; in [2], 4 A450 class; in [3], 2 A450 class.
For the molecule ILNSIQVMRAQMNQIQSVEV (modifications not checked) [ephrin B2], the Classification turned out to be 1 A450 class in assay [4]; 2 A450 class in assay [5]; 1 A450 class in assay [1]; 1 A450 class in assay [6]; 2 A450 class in [7]; 2 A450 class in [2]. Moreover, the Classification in [3] came to 1 A450 class; in [8], 1 A450 class; in assay [9], 2 A450 class.
Turning to VPGALDYAAFSSALYGESDL (modifications not checked) [a-actinin 2], the Classification in assay [10] amounted to 1 A450 class; in [11], 1 A450 class; in assay [12] it was 1 A450 class; in assay [13] it was 2 A450 class; in assay [14], 1 A450 class; in assay [15], 1 A450 class. Also, the Classification in assay [16] worked out at 5 A450 class; in assay [9], 2 A450 class.
Consider PYSELNYETSHYPASPDSWV (modifications not checked) [catenin - delta 2], for which the Classification in assay [17] turned out to be 1 A450 class; in assay [10] it was 2 A450 class; in assay [11], 3 A450 class; in assay [12], 4 A450 class; in assay [5], 1 A450 class; in assay [6], 1 A450 class. Further, the Classification in [7] was 1 A450 class; in assay [8] it was 3 A450 class.
In the case of PIPAGGCTFSGIFPTLTSPL (modifications not checked) [KIA 1481], the Classification is 1 A450 class in assay [18]; 3 A450 class in assay [19]; 2 A450 class in [4]; 2 A450 class in [13]; 5 A450 class in [14]; 1 A450 class in assay [9].
KTMPAAMYRLLTAQEQPVYI (modifications not checked) [MINT-1]: the Classification in assay [1] came to 3 A450 class; in [20], 1 A450 class; in assay [7], 5 A450 class; in assay [8], 1 A450 class.
Consider TQGFPGPATWRRISSLESEV (modifications not checked) [NMDA Glutamate Receptor 2C (cysteine-free)], for which the Classification turned out to be 5 A450 class in [21]; 1 A450 class in [17]; 3 A450 class in assay [18]; 4 A450 class in [19]; 5 A450 class in assay [10]; 5 A450 class in assay [11]. In addition, the Classification was found to be 4 A450 class in assay [12]; 5 A450 class in assay [13]; 1 A450 class in assay [22]; 1 A450 class in assay [20]; 1 A450 class in assay [6]; 2 A450 class in [15]. In assay [16], this molecule yielded a Classification of 4 A450 class.
With AWDDSARAAGGQGLHVTAL (modifications not checked) [LPAP], the Classification in [4] was determined as 5 A450 class; in assay [13], 3 A450 class; in assay [14], 3 A450 class.
On to QISPGGLEPPSEKHFRETEV (modifications not checked) [TAX], for which the Classification is 5 A450 class in [21]; 1 A450 class in [17]; 2 A450 class in [18]; 5 A450 class in assay [19]; 5 A450 class in assay [10]; 5 A450 class in assay [11]. Further, the Classification is 5 A450 class in assay [12]; 5 A450 class in assay [13]; 1 A450 class in assay [5]; 2 A450 class in assay [22]; 5 A450 class in assay [6]; 1 A450 class in assay [15]. The Classification in assay [16] was 2 A450 class.
Regarding ELLQFCRTPNPALKNGQYWV (modifications not checked) [CSPG4 (chondroitin sulfae proteoglycan 4, melanoma-associated)], the Classification stood at 1 A450 class in [21]; 3 A450 class in [12]; 2 A450 class in assay [1]; 4 A450 class in assay [20]; 5 A450 class in [7]; 4 A450 class in assay [2]. Besides, the values for the Classification in assay [3] and in assay [8] were 1 A450 class and 5 A450 class, respectively.
Consider VGTLLLERVIFPSVKIATLV (modifications not checked) [AdenoE4 typ9], for which the Classification in assay [21] amounted to 5 A450 class; in [17] it was 5 A450 class; in assay [18], 5 A450 class; in assay [10] it was 5 A450 class; in assay [11] it was 5 A450 class; in assay [22], 4 A450 class. For the same molecule, the Classification in assay [20] worked out at 1 A450 class; in assay [7] it was 4 A450 class.

The record behind these values is US20050282743A1, “Molecular interactions in cells” (Arbor Vita Corporation, priority 2001, published 2005).
